This note sets out measurements from PMC4581524 (Journal of cellular biochemistry, 2015).

The chains are these.
T1: monomeric RANK (UniProt O35305 31-214)
T1 sequence (looked up): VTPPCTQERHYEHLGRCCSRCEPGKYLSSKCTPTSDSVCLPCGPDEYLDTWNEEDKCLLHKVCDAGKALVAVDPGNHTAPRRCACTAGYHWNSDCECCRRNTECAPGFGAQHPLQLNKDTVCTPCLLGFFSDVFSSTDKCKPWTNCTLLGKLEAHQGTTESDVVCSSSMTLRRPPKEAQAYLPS

B1: RANKL K194E (ligand)
chain: KPEAQPFAHLTINAASIPSGSHKVTLSSWYHDRGWAEISNMTLSNGKLRVNQDGFYYLYANISFRHHETSGSVPTDYLQLMVYVVKTSEKIPSSHNLMKGGSTKNWSGNSEFHFYSINVGGFFKLRAGEEISIQVSNPSLLDPDQDATYFGAFKVQDID
modifications: Homotrimer; limits by convention (mouse RANKL ectodomain core). Species inferred: the printed numbering fits mouse
B2: RANKL K194E/Q236H/F269Y (ligand)
chain: KPEAQPFAHLTINAASIPSGSHKVTLSSWYHDRGWAEISNMTLSNGKLRVNQDGFYYLYANISFRHHETSGSVPTDYLHLMVYVVKTSEKIPSSHNLMKGGSTKNWSGNSEYHFYSINVGGFFKLRAGEEISIQVSNPSLLDPDQDATYFGAFKVQDID
modifications: Homotrimer; limits by convention (mouse RANKL ectodomain core)
B3: RANKL Q236H (ligand)
chain: KPEAQPFAHLTINAASIPSGSHKVTLSSWYHDRGWAKISNMTLSNGKLRVNQDGFYYLYANISFRHHETSGSVPTDYLHLMVYVVKTSEKIPSSHNLMKGGSTKNWSGNSEFHFYSINVGGFFKLRAGEEISIQVSNPSLLDPDQDATYFGAFKVQDID
modifications: Homotrimer; limits by convention (mouse RANKL ectodomain core)
B4: RANKL K194E/Q236H (ligand)
chain: KPEAQPFAHLTINAASIPSGSHKVTLSSWYHDRGWAEISNMTLSNGKLRVNQDGFYYLYANISFRHHETSGSVPTDYLHLMVYVVKTSEKIPSSHNLMKGGSTKNWSGNSEFHFYSINVGGFFKLRAGEEISIQVSNPSLLDPDQDATYFGAFKVQDID
modifications: Homotrimer; limits by convention (mouse RANKL ectodomain core)

For this assay, the target named is T1, monomeric RANK. Kind of assay: SPR.
Consider B1, for which the Kd is 899 nM, the koff is 0.101 s⁻¹ and the kon was found to be 113000 M⁻¹ s⁻¹.

In turn, B2 came in with a Kd of 29 nM, a koff of 0.005 s⁻¹ and a kon of 167000 M⁻¹ s⁻¹.

For the molecule B3, binding was put at a Kd of 81 nM, the koff came out at 0.023 s⁻¹ and the kon was determined as 300000 M⁻¹ s⁻¹.

In turn, B4 displayed a Kd of 67 nM, a koff of 0.017 s⁻¹ and a kon of 174000 M⁻¹ s⁻¹.

A word on the Kd: it is the equilibrium constant for the complex coming apart. Low values mean a tighter complex, high ones a looser complex. A word on the koff: it is the first-order rate constant of dissociation. Read a low koff as slow dissociation. What is called kon is the rate constant with which the complex forms. Low readings indicate slower complex formation, high ones faster complex formation.
